Data on one substance can be found in patent publication US20120088722.

In the data set the test system is T1, fluorescence labeled peptide of the protease-sensitive hinge region of LTBP1, REHGARS.
T1 sequence: REHGARS

In the case of MMP13 catalytic domain (Enzo, Inc), the “Km (Michaelis-Menten non-linear fit, digest of fluorescence labeled hinge substrate)” value is “Km=1.628e-016”.
